The values below come from US20220242962A1 (APTEVO RESEARCH AND DEVELOPMENT, published 2022).

This assay addresses T1, Fc gamma receptor RIIIA V176 (human, UniProt P08637 17-208).
T1 construct: soluble SPR analyte
Put plainly: SPR, construct immobilized, receptor injected at 2 uM. On the procedure: Fcγ receptor binding to bispecific proteins was measured by Surface Plasmon Resonance on a Biacore 8K instrument at room temperature. Bispecific proteins with modified Fc regions to reduce binding to Fcγ receptors were directly immobilized on the surface of a CM5 sensor chip to a surface density of 4000 RU. A bispecific ADAPTIR™ protein with a wild type Fc was similarly immobilized to the surface as a positive control and used as a comparator to evaluate the reduction in binding resulting from changes incorporated into the Fc region amino acid sequence. Fcγ receptors (purchased from R&D Systems) were diluted to either 100 nM (FcγRI) or 2 μM (all other Fcγ receptors) in HBS-EP+ buffer before injecting over the surface of the prepared sensor chip at 30 μL/min for 60 seconds. Maximum RU values during association phase of each injection were used to compare the extent of binding of the modified Fc to wild type value and are reported in Table 17 below.
In general terms: SPR reads the build-up and loss of mass on a sensor chip optically.

Numbering of substitutions follows the chain as printed.

T1 sequence (P08637 17-208 F176V): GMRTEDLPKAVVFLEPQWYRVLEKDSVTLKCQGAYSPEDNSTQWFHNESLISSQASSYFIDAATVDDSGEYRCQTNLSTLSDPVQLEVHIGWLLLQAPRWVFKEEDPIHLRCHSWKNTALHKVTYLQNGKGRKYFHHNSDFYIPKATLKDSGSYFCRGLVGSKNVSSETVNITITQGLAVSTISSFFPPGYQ

B1: FXX01115 (bispecific antibody)
chain: EVQLVQSGAEVKKPGASVKVSCKASGYTFTSYWMNWVRQAPGQGLEWMGNIYPSGGSTNYAQKFQGRVTMTVDTSTSTVYMELSSLRSEDTAVYYCASFSDGYYAYAMDYWGQGTLVTVSSGGGGSGGGGSGGGGSGGGGSEIVMTQSPATLSLSPGERATLSCRASQSVSSYLNWYQQKPGQAPRLLIYYASRRHTGIPARFSGSGSGTDFTLTISSLQPEDFAVYYCQQGYNLPYTFGQGTKVEIKEPKSSDKTHTCPPCPAPPAAAPSVFLFPPKPKDTLMISRTPEVTCVVVDVSHEDPEVKFNWYVDGVEVHNAKTKPREEQYNSTYRVVSVLTVLHQDWLNGKEYKCAVSNKALPAPIEKTISKAKGQPREPQVYTLPPSRDELTKNQVSLTCLVKGFYPSDIAVEWESNGQPENNYKTTPPVLDSDGSFFLYSKLTVDKSRWQQGNVFSCSVMHEALHNHYTQKSLSLSPGGGGSPSSYVLTQPPSVSVAPGQTARITCGGNNIGSKSVNWFQQKPGQAPVLVVYDDSGRPSGVPNRFSGSTSGNTATLTISRVEAGDEADYYCQVWDSSSDHVVFGGGTKLTVLGGGGSGGGGSGGGGSGGGGSQVQLVESGGGVVQPGRSLRLSCAASGFTLSYYGMHWVRQAPGKGLEWVAAISHDGSDKYYADSVKGRFTISRDNSKNRLYLQMNSLRAEDTAVYYCSNDQFDPWGQGTLVTVSSR
notes: ADAPTIR anti-4-1BB x anti-OX40, pI variant; PAA (del) Fc
Regarding B1, the “Max RU value during association” value is 0 RU.

B2: FXX01119 (bispecific antibody)
chain: B1 chain with Q500K
notes: as for B1
On to B2, for which the “Max RU value during association” value was 0 RU.
